Assays:
[1] = biological target: T1, ParB (Spo0J) (Bacillus subtilis 168) (UniProt P26497); test: fluorescence intensity (Cy3); conditions: 50 mM Hepes-KOH pH 7.5, 100 mM KCl, 2.5 mM MgCl2, 0.1 mg/ml BSA, 1 mM DTT, 20 nM DNA, EMSA also 2.5% Ficoll, room temperature 30 min then ice 5 min, gel at 4 C
T1 sequence: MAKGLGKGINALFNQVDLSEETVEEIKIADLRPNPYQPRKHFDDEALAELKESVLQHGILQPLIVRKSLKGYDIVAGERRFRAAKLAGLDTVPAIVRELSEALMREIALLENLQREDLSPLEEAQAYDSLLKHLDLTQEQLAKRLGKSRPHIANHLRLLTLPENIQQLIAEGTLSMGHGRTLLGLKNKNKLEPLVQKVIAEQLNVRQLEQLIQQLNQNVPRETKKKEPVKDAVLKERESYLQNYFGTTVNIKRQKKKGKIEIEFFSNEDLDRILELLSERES

[2] = biological target: T1, ParB (Spo0J) (Bacillus subtilis 168); test: EMSA; conditions: 50 mM Hepes-KOH pH 7.5, 100 mM KCl, 2.5 mM MgCl2, 0.1 mg/ml BSA, 1 mM DTT, 20 nM DNA, EMSA also 2.5% Ficoll, room temperature 30 min then ice 5 min, gel at 4 C

**Q.** With “TTTTGGAGATAGGATTCCCGTTCTTTTAGAACCGCATCTTTCACAGGTTCTTTTTTCTTTGTTTCACGTGGAACATTCTGATTCAACTGCTGAATCAGCTGCTCAAGTTGGCGAACATTGAGCTGCTCCGCAATCACTTTTTGTACC (double strand) [Cy3 147-bp parS]” as the substance, how does the Kd [1] read?
**A.** 240 nM

**Q.** How did the Kd [1] turn out when “TTTTGGAGATAGGATTCCCGTTCTTTTAGAACCGCATCTTTCACAGGTTCTTTTTTCTTTGTCTCCCTGGGCACGTTCTGATTCAACTGCTGAATCAGCTGCTCAAGTTGGCGAACATTGAGCTGCTCCGCAATCACTTTTTGTACC (double strand) [Cy3 147-bp non-specific (scrambled parS)]” was run?
**A.** 275 nM

**Q.** For 147-bp parS, which Kd ([2]; specific complex, TBM gel, 2.5 mM Mg2+) is on record?
**A.** 100 nM

**Q.** Which Kd [2] does the source give for “GGTACAAAAAGTGATTGCGGAGCAGCTCAATGTTCGCCAACTTGAGCAGCTGATTCAGCAGTTGAATCAGAATGTTCCACGTGAAACAAAGAAAAAAGAACCTGTGAAAGATGCGGTTCTAAAAGAACGGGAATCCTATCTCCAAAA (double strand) [147-bp parS]” here?
**A.** 100 nM

**Q.** What about the binding [2] of the same substance?
**A.** binds

**Q.** For “TTTTGGAGATAGGATTCCCGTTCTTTTAGAACCGCATCTTTCACAGGTTCTTTTTTCTTTGTCTCCCTGGGCACGTTCTGATTCAACTGCTGAATCAGCTGCTCAAGTTGGCGAACATTGAGCTGCTCCGCAATCACTTTTTGTACC (double strand) [147-bp non-specific (scrambled parS)]”, which binding [2] is on record?
**A.** binds

**Q.** For “Cy3 147-bp non-specific (scrambled parS)”, which Kd ([1]; apparent Kd of ParB2, Hill h = 3.4 ± 0.4, 2.5 mM Mg2+) is on record?
**A.** 275 nM

**Q.** For Cy3 147-bp parS, which Kd [1] is on record?
**A.** 240 nM
